These results are taken from US20160185865A1.

This experiment concerns the target human CC chemokine receptor 4 (CCR4) (human) (UniProt P51679). The experiment in a line: binding curve of FIG. 20B; cells not given.

Sequence of human CC chemokine receptor 4 (CCR4) (human) (P51679 whole entry): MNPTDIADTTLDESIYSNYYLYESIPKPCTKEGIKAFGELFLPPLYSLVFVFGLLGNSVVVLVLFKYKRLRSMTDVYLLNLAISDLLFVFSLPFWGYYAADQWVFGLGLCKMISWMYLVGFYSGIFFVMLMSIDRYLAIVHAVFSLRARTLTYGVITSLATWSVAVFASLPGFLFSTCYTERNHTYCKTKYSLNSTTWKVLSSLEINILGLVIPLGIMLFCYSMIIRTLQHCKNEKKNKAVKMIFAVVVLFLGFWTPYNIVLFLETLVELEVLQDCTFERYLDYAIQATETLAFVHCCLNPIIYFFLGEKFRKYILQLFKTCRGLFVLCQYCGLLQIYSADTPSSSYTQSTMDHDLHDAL

B1: KM2760 (anti-CCR4 chimeric antibody) (antibody, from another filing, V domains shown)
VH: EVQLVESGGDLMKPGGSLKISCAASGFIFSNYGMSWVRQTPDMRLEWVATISSASTYSYYPDSVKGRFTISRDNAENSLYLQMNSLRSEDTGIYYCGRHSDGNFAFGYWGRGTLVTVSA
VL: DVLMTQTPLSLPVSLGDQASISCRSSRNIVHINGDTYLEWYLQRPGQSPKLLIYKVSNRFSGVPDRFSGSGSGTDFTLKISRVEAEDLGVYYCFQGSLLPWTFGGGTRLEIRR
B1: the half-maximal effective concentration (EC50) (usually the concentration giving half of the maximal effect) worked out at 5.07 nM.
